Laboratory results published in paper PMC3155019, “Dynamics of the Phosphoinositide 3-Kinase p110δ Interaction with p85α and Membranes Reveals Aspects of Regulation Distinct from p110α” (Structure(London, England:1993), 2011).
Non-standard residues stand in square brackets, D forms with d. No end group written: not given here. pY = N[C@@H](Cc1ccc(OP(=O)(O)O)cc1)C(=O)O

Biological target: p110δ+p85α nicSH2 complex (human | , UniProt O00329 1-1044; P27986 322-724)
Test: cell-based or functional assay

Chain of p110δ+p85α nicSH2 complex (O00329 whole entry, stated change not applied, chain 1 of 2): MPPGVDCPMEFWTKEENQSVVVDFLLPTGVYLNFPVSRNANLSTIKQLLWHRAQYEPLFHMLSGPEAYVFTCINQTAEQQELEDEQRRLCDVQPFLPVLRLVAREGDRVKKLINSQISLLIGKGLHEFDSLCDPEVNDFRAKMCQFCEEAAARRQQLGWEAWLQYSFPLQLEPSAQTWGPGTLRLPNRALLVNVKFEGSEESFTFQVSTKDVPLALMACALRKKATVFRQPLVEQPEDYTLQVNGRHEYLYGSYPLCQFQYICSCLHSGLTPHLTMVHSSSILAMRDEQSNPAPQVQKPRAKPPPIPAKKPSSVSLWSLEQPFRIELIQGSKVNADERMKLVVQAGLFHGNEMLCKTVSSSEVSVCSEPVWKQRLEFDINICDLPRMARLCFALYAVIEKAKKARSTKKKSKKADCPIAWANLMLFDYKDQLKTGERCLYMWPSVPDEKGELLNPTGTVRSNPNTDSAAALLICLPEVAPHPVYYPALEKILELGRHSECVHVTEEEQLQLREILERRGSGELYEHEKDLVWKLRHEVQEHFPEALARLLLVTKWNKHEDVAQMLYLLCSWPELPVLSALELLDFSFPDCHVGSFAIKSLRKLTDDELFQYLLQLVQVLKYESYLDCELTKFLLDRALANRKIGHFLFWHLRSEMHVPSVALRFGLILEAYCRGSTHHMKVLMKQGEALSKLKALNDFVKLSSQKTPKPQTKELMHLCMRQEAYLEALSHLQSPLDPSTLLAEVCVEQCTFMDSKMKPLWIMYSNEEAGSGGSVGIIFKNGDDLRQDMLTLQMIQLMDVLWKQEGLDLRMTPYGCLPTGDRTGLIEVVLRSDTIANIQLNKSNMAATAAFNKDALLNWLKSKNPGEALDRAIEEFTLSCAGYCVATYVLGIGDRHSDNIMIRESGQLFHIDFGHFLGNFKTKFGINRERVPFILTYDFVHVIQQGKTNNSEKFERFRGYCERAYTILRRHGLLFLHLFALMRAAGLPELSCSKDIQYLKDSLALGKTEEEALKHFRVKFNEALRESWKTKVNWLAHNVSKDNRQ
Chain of p110δ+p85α nicSH2 complex (P27986 322-724, stated change not applied, chain 2 of 2): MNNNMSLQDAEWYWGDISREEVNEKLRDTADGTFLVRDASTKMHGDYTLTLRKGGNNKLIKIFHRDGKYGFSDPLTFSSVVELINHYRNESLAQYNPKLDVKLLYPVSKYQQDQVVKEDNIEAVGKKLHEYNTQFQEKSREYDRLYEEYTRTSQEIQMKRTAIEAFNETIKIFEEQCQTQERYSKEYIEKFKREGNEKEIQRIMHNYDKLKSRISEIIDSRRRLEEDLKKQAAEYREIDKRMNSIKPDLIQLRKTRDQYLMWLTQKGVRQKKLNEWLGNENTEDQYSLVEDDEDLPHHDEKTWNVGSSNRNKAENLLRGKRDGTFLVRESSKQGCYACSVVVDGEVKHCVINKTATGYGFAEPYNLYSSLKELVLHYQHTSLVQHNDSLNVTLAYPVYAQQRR

B1: PDGFR bis-phosphorylated pY peptide (residues 735–767, with pY740 and pY751) (peptide)
peptide: ESDGG[pY]MDMSKDESID[pY]VPMLDMKGDIKYADIE
Q: For B1, which “activation of the lipid kinase activity of p110δ+nicSH2 by 10 μM PDGFR pY” value is on record?
A: The value was roughly 13 fold.
